Experimental data from article PMC10003451 (2023).
Where no end group is shown, it is not given here. [ ]: non-standard residue; d: D form. pT = C[C@@H](OP(=O)(O)O)[C@H](N)C(=O)O

Biological target: recombinant protein phosphatase-1 catalytic subunit alpha (PP1cα) (UniProt P62136 1-330)
Assay: ITC

recombinant protein phosphatase-1 catalytic subunit alpha (PP1cα), sequence (P62136 whole entry): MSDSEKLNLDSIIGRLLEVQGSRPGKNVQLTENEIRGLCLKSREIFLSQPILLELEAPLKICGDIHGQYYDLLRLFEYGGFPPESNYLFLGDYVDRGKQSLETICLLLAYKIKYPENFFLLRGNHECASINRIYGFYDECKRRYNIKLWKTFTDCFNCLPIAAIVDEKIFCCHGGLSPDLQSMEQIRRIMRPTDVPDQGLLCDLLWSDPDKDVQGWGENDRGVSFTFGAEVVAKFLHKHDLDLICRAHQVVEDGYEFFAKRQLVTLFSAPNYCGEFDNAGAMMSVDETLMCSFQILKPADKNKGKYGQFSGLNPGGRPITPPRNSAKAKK

## RQSRRS[pT]QGVTL
  Ka: 2.57e+06 M⁻¹
